According to patent publication US20240327530A1 (ICHNOS SCIENCES, published 2024):

Legend:
[1] = biological target: T1, Recombinant human IL-1RAP-ECD(S21-E359)-avi-his protein (human, UniProt Q9NPH3 21-359); experiment: SPR, IgG1 LALA captured on anti-human IgG Fc CM5 chip, human IL-1RAP-avi-his as analyte in a concentration series, 1:1 fit, one representative replicate
T1 construct: Biotinylated where loaded on streptavidin; also called human IL-1RAP-ECD-Avi-His; recombinant human IL-1RAP-avi-his protein
T1 sequence: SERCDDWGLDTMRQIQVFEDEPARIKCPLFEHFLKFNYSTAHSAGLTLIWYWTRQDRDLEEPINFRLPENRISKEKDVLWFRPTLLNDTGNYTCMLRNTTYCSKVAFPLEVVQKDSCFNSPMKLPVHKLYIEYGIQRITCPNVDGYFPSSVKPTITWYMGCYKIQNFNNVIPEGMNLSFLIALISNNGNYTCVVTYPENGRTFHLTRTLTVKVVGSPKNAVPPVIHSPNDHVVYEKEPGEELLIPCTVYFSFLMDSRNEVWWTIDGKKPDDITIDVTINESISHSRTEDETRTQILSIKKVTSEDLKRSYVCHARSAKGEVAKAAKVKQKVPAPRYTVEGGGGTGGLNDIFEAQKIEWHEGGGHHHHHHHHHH
Experimental: Anti-IL-1RAP-C8-RecC-ES IgG1 LALA was immobilized on a Series S CM5 sensor CHIP coupled with anti-human IgG Fc. Human IL-1RAP-avi-his or cynomolgus monkey IL-1RAP-avi-his was injected over immobilized IgG1 LALA in concentration series in HBS-EP+ buffer. One representative replicate for human IL-1RAP and cynomolgus monkey IL-1RAP is presented. Plots are showing data expressed as number of resonance units (abbreviated RU; Y axis) vs. time (s, X axis). Dotted lines represent the measured data while solid lines represent simulated fits. KD: equilibrium dissociation constant; Ka: association constant; Kd: dissociation constant.
(§1) Surface plasmon resonance (SPR) was used to measure the binding affinities of the human IgG1 LALA molecules for human and cynomolgus monkey IL-1RAP. Affinities were measured on a BIACORE™ T200 instrument (BIACORE™, GE […]®) at 25° C. and analyzed with the BIACORE™ T200 Evaluation Software (v3.1). Measurements were performed on Series S CM5 sensor chips (BIACORE™ T200, BIACORE™, GE […]®, catalog no. BR100530) coupled with anti-human IgG Fc (BIACORE™, GE […]®, catalog no. BR100839) using a commercial amine coupling kit (BIACORE™, GE […]®, catalog no. BR100050). SPR measurements were performed with recombinant human IL-1RAP-avi-his protein produced in house (SEQ ID NO. 1) or recombinant cynomolgus monkey IL-1RAP-avi-his protein produced in house (SEQ ID NO. 2). The affinities to human and cynomolgus monkey IL-1RAP were assessed by immobilizing anti-IL-1RAP IgG1 LALA molecules and using IL-1RAP proteins as analyte. Around 150 RU of human IgG1 LALA were captured on fc2 of a Series S CM5 sensor chip coupled with anti-human IgG Fc. Recombinant human IL-1RAP-avi-his protein or recombinant cynomolgus monkey IL-1RAP-avi-his protein was injected in multi cycle kinetic at different concentrations ranging from 0.14 to 100 nM, in HBS-EP+ buffer (BIACORE™, GE […]®, catalog no. BR100669) at a flow rate of 30 μl/min for 3 min on fc1 and fc2 (fc1 being used as reference). Dissociation was monitored for 12 min.

[2] = biological target: T1, Recombinant human …; experiment: SPR, IgG1 LALA captured by anti-human Fc, human IL-1RAP-avi-his as analyte, 1:1 fit
Experimental: as §1, with “min. After each cycle, the surface was regenerated with 60 μl of regeneration solution provided with anti-human IgG Fc capture kit (BIACORE™, GE […]®, catalog no. BR100839). Experimental data were processed using the 1:1 Langmuir kinetic fitting model. Measurements included zero-concentration samples for referencing. Chi², U- and residual values were used to evaluate the quality of a fit between the experimental data and individual binding models.” for “min.”

- Kd [1]: 0.267 nM
- koff [1]: 0.000169 s⁻¹
- kon [1]: 633000 M⁻¹ s⁻¹
- Kd [2]: 0.251 nM
- koff [2]: 0.000172 s⁻¹
- kon [2]: 693000 M⁻¹ s⁻¹
B1: Anti-IL-1RAP-C8-RecC-ES-IgG1LALA (antibody, V domains shown)
VH: QVQLVQSGAEVKKPGSSVKVSCKASGSPAEPYAIQWVRQAPGQGLEWMGYIIPSLGGYDYAQKFQGRVTITADESTSTAYMELSSLRSEDTAVYYCARGQTLYESGRQFDIWGQGTLVTVSS
VL: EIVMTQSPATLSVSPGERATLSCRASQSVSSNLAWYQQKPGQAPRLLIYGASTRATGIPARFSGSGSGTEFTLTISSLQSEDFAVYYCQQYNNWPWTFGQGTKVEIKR
notes: also called ISB 880-C8-recC-ES
